Bridge positions count the residues as written; N and C are the ends.
Molecular target: T1, RNF31 PUB domain (Homo sapiens, UniProt Q96EP0)
T1 construct: MBP-TEV (N, cleaved yes); made in house; host or cells: E. coli BL21 (DE3) pLysS
T1 sequence (Q96EP0 1-179): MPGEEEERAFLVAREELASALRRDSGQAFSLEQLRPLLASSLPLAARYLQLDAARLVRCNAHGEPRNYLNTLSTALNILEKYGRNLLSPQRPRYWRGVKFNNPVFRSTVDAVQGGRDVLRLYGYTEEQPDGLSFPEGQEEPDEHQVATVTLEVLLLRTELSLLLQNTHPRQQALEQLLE
Assay: Phage Library Screening with NGS, RNF31 PUB domain
Format: binding
Details: for Phage library screen NGS readout, Target Concentration 10 / Phage library screen NGS readout, Target Concentration 30 / Phage library screen NGS readout, Target Concentration 100 / Phage library screen NGS readout, Target Concentration 300 / Phage library screen NGS readout, Target Concentration 1000: RNF31 PUB domain clusters C41-C45; for Phage library screen NGS readout, BLANK: clusters C41-C45

[1] = target concentration 1000, first column
[2] = target concentration 1000, second column

Row | Sequence | Phage library screen NGS readout, Target Concentration 10 | Phage library screen NGS readout, Target Concentration 30 | Phage library screen NGS readout, Target Concentration 100 | Phage library screen NGS readout, Target Concentration 300 | Phage library screen NGS readout, Target Concentration 1000 [1] | Phage library screen NGS readout, Target Concentration 1000 [2] | Phage library screen NGS readout, BLANK (column 1 of 5) | Phage library screen NGS readout, BLANK (column 2 of 5) | Phage library screen NGS readout, BLANK (column 3 of 5) | Phage library screen NGS readout, BLANK (column 4 of 5) | Phage library screen NGS readout, BLANK (column 5 of 5)
1 | DPAIDACYDAAVMCTYV | 0 | 0 | 0 | 6 | 27 | 15 | 0 | 0 | 0 | 0 | 4
2 | DPAQDWCMYAAYECDAH | 0 | 0 | 0 | 2 | 7 | 9 | 0 | 0 | 2 | 1 | 1
3 | DPALVTCTWAAIYCDDF | 1 | 1 | 2 | 1 | 4 | 10 | 0 | 1 | 0 | 2 | 0
4 | DPALRDCLDAAIMCTYT | 0 | 1 | 0 | 4 | 5 | 7 | 0 | 0 | 0 | 0 | 0
5 | DPAEDECQDAAILCSYN | 1 | 3 | 0 | 7 | 19 | 6 | 1 | 0 | 0 | 0 | 1
6 | DPAIQECLLAAATCWTY | 0 | 0 | 0 | 2 | 8 | 4 | 0 | 0 | 0 | 0 | 0
7 | DPAWLDCIYAAYDCVTD | 1 | 1 | 1 | 3 | 6 | 4 | 1 | 1 | 1 | 0 | 2
8 | DPALEDCQWAALYCDEY | 0 | 0 | 1 | 2 | 7 | 9 | 1 | 1 | 1 | 0 | 0
9 | DPAYDWCLYAAEYCHTD | 0 | 0 | 0 | 1 | 7 | 4 | 0 | 0 | 1 | 0 | 0
10 | DPAQEECFEAAVFCSYY | 2 | 0 | 2 | 7 | 36 | 20.49 | 0 | 0 | 0 | 0 | 1
11 | DPAYWDCLYAAADCAFY | 0 | 0 | 0 | 4 | 8 | 5 | 2 | 0 | 0 | 0 | 0
12 | DPALEICWDAAIQCSYV | 2 | 3 | 4 | 47 | 186 | 171 | 2 | 0 | 0 | 3 | 1
13 | DPAWWNCLYAANTCVED | 0 | 1 | 0 | 5 | 7 | 5 | 1 | 2 | 1 | 1 | 1
14 | DPAIVQCAWAALYCDMQ (Ac-DPAIVQCAWAALYCDMQ-NH2; bridge 7-14; also: Cys-Cys staple, linker not named) | 0 | 0 | 0 | 7 | 22 | 20 | 0 | 0 | 0 | 0 | 0
